Results published in US20060142192A1 (ZymoGenetics, published 2006).

Assays:
human ZcytoR21x1 [1] = target: T1, human ZcytoR21x1 (human, UniProt Q8NFR9 24-667); test: flow cytometry, biotinylated IL-17C (1 ug/ml) + streptavidin-PE on stably transfected BHK cells
T1 construct: also called hcytor21x1; IL-17RE
T1 sequence: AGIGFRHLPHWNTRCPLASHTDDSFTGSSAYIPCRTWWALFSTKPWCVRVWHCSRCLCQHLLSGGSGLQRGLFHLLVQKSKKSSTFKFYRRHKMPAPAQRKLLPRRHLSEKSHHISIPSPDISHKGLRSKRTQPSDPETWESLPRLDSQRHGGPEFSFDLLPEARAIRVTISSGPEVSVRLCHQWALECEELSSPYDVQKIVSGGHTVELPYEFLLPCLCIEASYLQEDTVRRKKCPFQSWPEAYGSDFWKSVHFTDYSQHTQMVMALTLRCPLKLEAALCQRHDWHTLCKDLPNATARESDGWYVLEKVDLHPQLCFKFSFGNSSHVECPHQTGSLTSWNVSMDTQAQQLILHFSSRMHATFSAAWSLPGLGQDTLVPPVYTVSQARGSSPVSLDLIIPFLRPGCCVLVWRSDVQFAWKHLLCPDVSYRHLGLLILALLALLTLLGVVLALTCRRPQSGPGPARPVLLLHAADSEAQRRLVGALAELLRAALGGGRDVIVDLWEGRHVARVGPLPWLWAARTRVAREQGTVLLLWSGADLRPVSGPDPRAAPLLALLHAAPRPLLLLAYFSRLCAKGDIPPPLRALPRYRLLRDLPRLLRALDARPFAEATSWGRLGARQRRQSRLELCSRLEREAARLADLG
Method: (§1) BHK cells stably transfected with human and mouse ZcytoR21 splice variants were plated and grown to confluency in T-75 flasks. Cells were lifted off using a non-protease reagent such as Versene (Invitrogen 15040-066), pelleted, and resuspended in a staining reagent (HBSS+1% BSA+0.1% NaAzide+10 mM HEPES) at 2×10e7 cells/ml and aliquoted to a 96-well Costar plate. IL-17C that has been labeled with biotin was independently added to cells at a concentration of 1 ug/ml. The cell/ligand mixture can be incubated for 1 hr at 4 degrees. The wells were washed 1× in staining reagent, and incubated in a secondary reagent containing staining reagent plus Streptavidin-PE (BD Pharmingen 554061) at a 1:100 ratio. The wells were incubated at 4° C. in the dark for 1 hr, followed by a 2× wash in staining media. The cells were then resuspended in a 1:1 mixture of staining media and Cytofix (BD Bioscience 554655) and incubated 10 minutes at RT. The cells were analysed by Flow Cytometry and by gating on the PE positive events for cells that bound IL-17C.

human ZcytoR21x2 [2] = target: T2, human ZcytoR21x2 (human, UniProt Q8NFR9 24-667); test: as above
T2 construct: also called hcytor21x2
T2 sequence: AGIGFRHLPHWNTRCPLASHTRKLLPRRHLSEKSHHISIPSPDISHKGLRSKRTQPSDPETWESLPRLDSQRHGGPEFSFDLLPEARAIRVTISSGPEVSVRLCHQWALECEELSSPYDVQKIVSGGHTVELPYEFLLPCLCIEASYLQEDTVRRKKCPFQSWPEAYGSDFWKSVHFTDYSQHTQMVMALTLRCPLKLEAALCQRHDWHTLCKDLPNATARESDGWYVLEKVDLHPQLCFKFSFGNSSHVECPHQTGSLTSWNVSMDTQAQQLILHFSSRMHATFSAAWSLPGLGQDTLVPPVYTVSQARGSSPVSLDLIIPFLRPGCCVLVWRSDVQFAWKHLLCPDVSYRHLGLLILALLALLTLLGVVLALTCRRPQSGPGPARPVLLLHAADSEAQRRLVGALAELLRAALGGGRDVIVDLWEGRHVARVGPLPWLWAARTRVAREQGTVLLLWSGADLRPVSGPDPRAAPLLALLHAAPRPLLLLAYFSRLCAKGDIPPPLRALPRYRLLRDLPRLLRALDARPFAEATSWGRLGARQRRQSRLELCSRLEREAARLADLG
Method: as §1

human ZcytoR21x6 = target: T3, human ZcytoR21x6 (human, UniProt Q8NFR9 24-667); test: as above
T3 construct: also called hcytor21x6
T3 sequence: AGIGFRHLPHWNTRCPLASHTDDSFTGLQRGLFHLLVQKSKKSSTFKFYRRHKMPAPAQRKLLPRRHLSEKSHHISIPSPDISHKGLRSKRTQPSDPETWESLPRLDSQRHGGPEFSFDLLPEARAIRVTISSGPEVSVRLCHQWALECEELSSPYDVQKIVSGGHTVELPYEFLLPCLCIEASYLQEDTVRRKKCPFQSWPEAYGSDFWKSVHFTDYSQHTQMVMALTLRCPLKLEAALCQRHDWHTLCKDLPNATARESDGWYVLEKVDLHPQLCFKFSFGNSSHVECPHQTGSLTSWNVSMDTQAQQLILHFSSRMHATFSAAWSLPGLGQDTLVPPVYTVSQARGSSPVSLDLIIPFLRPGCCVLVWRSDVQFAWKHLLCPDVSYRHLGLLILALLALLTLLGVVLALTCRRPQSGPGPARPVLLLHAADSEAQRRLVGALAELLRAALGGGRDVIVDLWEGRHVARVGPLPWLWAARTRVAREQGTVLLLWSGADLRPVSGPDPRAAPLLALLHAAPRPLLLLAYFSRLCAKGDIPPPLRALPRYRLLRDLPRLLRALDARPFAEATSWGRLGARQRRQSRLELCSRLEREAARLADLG
Method: as §1

human ZcytoR21x13 = target: T4, human ZcytoR21x13 (human, UniProt Q8NFR9 24-667); test: as above
T4 construct: also called hcytor21x13
T4 sequence: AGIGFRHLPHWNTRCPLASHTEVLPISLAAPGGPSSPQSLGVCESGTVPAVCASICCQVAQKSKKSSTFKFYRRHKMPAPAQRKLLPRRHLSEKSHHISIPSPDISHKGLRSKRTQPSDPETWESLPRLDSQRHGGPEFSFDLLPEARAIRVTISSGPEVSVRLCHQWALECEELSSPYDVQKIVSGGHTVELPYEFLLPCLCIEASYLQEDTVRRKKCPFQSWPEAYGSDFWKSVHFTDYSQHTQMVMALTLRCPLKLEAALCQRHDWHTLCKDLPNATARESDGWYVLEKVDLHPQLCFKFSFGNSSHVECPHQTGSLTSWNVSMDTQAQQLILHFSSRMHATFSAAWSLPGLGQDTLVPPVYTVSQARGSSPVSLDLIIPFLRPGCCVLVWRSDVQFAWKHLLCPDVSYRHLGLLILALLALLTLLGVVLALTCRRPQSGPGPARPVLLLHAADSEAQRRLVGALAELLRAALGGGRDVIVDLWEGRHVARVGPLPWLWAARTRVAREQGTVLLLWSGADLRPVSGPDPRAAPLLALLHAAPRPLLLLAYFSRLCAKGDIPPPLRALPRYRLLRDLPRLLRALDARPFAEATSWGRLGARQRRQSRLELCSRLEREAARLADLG
Method: as §1

murine ZcytoR21x6 = target: T5, murine ZcytoR21x6 (mouse, UniProt Q8BH06 24-637); test: as above
T5 construct: also called mouse ZcytoR21x6; mcytor21x6
T5 sequence: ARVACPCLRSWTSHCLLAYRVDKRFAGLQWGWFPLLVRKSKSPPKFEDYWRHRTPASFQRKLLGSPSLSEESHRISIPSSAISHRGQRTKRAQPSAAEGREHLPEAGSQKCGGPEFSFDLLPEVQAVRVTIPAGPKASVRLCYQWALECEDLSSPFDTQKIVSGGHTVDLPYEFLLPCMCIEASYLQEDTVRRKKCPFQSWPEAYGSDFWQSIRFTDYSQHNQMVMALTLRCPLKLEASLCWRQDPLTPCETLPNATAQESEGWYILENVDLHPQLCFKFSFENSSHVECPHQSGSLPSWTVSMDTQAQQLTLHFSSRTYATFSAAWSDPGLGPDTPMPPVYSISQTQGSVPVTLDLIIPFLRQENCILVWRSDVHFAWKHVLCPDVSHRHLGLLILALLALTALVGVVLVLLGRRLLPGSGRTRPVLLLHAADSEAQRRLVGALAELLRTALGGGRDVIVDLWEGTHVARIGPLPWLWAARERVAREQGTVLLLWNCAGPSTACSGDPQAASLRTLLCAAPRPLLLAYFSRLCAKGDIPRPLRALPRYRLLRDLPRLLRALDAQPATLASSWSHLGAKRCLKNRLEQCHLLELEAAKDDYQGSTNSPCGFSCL
Method: as §1

human ZcytoR21x1 [3] = target: T1, human ZcytoR21x1; test: flow cytometry, biotinylated ligand + streptavidin-PE on stably transfected BHK cells
human ZcytoR21x2 [4] = target: T2, human ZcytoR21x2; test: as above

B1: murine IL-17C (ligand)
chain: DPPSWGKPRSHRTLRCYSAEELSHGQAPPHLLTRSARWEQALPVALVASLEATGHRRQHEGPLAGTQCPVLRPEEVLEADTHERSISPWRYRIDTDENRYPQKLAVAECLCRGCINAKTGRETAALNSVQLLQSLLVLRRQPCSRDGTADPTPGSFAFHTEFIRVPVGCTCVLPRSTQ
modifications: biotin label in the binding assays (sites not given); unlabelled in the signalling assays
notes: also called mouse IL-17C; IL-17CmCH6
- binding result (human ZcytoR21x1 [1]): binds
- binding result (human ZcytoR21x2 [2]): binds
- binding result (human ZcytoR21x6): binds
- binding result (human ZcytoR21x13): binds
- binding result (murine ZcytoR21x6): binds

B2: human IL-17B (biotinylated) (ligand, UniProt Q9UHF5 21-180, looked up)
chain: QPRSPKSKRKGQGRPGPLAPGPHQVPLDLVSRMKPYARMEEYERNIEEMVAQLRNSSELAQRKCEVNLQLWMSNKRSLSPWGYSINHDPSRIPVDLPEARCLCLGCVNPFTMQEDRSMVSVPVFSQVPVRRRLCPPPPRTGPCRQRAVMETIAVGCTCIF
modifications: biotin label (sites not given)
- binding result (human ZcytoR21x1 [3]): no binding
- binding result (human ZcytoR21x2 [4]): no binding

B3: human IL-17D (biotinylated) (ligand, UniProt Q8TAD2 18-202, looked up)
chain: APRAGRRPARPRGCADRPEELLEQLYGRLAAGVLSAFHHTLQLGPREQARNASCPAGGRPADRRFRPPTNLRSVSPWAYRISYDPARYPRYLPEAYCLCRGCLTGLFGEEDVRFRSAPVYMPTVVLRRTPACAGGRSVYTEAYVTIPVGCTCVPEPEKDADSINSSIDKQGAKLLLGPNDAPAGP
modifications: biotin label (sites not given)
- binding result (human ZcytoR21x1 [3]): no binding
- binding result (human ZcytoR21x2 [4]): no binding

B4: human IL-17F (biotinylated) (ligand, UniProt Q96PD4 31-163, looked up)
chain: RKIPKVGHTFFQKPESCPPVPGGSMKLDIGIINENQRVSMSRNIESRSTSPWNYTVTWDPNRYPSEVVQAQCRNLGCINAQGKEDISMNSVPIQQETLVVRRKHQGCSVSFQLEKVLVTVGCTCVTPVIHHVQ
modifications: biotin label (sites not given)
- binding result (human ZcytoR21x1 [3]): no binding
- binding result (human ZcytoR21x2 [4]): no binding
